From article PMC10215190

Target: recombinant PhaC (PHA synthase Class III) from Arthrospira platensis (Arthrospira platensis)
Experiment: SEC; Sephadex-G50 column, 100 mM sodium phosphate pH 7.4, 1 mL/min, A280; masses estimated from retention times of standards (alcohol dehydrogenase 150 kDa, BSA 66 kDa, ovalbumin 44 kDa); dimer and monomer peaks both seen

- stoichiometry N: 2
Substance: recombinant PhaC (PHA synthase Class III) from Arthrospira platensis (enzyme)
